Earlier results on 3 substances are cited in publication PMC7365847.

One data set has as its target IL-18BP (Homo sapiens) (UniProt O95998).
Data set [1] concerns the target IL-1β (Homo sapiens) (UniProt P01584).
Another data set deals with IL-1Ra (Homo sapiens) (UniProt P18510).
In data set [2] the target is IL-1β (Homo sapiens) (UniProt P01584). The source holds these as a separate data set.

Where two headings read alike, the source gives them in different places.

IL-1β (Homo sapiens), sequence (P01584 117-269): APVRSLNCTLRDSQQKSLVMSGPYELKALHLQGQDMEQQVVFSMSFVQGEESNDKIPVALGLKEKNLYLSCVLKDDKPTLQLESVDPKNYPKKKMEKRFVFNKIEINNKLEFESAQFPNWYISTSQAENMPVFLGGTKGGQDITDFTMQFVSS
IL-18BP (Homo sapiens), sequence (O95998 31-194): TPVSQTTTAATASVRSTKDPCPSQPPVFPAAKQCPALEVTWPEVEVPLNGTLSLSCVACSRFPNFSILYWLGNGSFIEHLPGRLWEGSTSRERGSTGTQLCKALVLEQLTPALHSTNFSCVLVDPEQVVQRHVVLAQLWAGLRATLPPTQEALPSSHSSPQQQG
IL-1Ra (Homo sapiens), sequence (P18510 26-177): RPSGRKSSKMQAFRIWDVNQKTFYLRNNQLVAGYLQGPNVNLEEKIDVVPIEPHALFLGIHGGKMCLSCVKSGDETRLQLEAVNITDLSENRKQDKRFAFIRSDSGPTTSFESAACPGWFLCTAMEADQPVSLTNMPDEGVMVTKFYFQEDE
IL-18, sequence (Q14116 37-193): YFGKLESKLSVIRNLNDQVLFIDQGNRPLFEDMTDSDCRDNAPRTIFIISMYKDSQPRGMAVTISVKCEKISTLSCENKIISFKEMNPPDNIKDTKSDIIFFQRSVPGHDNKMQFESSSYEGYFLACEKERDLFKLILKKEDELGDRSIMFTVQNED
sIL-1R2/sIL-1R3 complex, sequence (P27930 14-398): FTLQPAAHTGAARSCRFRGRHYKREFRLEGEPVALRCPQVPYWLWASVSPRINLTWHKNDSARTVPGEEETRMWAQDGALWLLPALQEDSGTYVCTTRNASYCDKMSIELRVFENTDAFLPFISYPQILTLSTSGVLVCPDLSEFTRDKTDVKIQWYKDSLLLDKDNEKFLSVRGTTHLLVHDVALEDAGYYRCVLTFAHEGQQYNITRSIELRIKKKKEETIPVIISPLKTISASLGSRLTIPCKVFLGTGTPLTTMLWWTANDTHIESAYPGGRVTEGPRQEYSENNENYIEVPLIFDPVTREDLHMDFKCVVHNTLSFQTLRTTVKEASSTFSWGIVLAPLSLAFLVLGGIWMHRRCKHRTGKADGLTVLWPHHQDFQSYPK
sIL-1R2/sIL-1R3 complex, sequence (Q9NPH3 21-570, further chain): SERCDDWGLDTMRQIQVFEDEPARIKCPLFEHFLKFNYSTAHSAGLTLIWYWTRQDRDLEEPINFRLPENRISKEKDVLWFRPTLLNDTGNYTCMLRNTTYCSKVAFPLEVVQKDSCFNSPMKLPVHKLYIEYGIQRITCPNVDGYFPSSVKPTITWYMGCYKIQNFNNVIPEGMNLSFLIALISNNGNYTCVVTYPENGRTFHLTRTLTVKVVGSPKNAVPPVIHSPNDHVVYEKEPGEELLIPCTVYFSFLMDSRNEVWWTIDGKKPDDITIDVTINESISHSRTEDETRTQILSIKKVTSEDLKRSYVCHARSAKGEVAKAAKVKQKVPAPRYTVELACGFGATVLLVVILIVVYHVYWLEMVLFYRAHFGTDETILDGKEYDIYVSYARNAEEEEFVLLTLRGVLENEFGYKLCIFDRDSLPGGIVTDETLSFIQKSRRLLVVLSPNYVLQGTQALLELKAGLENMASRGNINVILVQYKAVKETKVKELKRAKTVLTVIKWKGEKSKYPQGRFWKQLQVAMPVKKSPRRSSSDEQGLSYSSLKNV

As to IL-18 (from UniProt Q14116), the Kd in the data set with IL-18BP (Homo sapiens) is 0.4 nM.

Turning to sIL-1R2 (from UniProt P27930), the Kd is 2.7 nM in the data set with IL-1β (Homo sapiens) [1] and 25000 nM in the data set with IL-1Ra (Homo sapiens).

“sIL-1R2/sIL-1R3 complex (from UniProt P27930)”: the dissociation constant Kd with IL-1β (Homo sapiens) [2] is 0.0056 nM.

In general, Kd refers to the constant that tells how readily two partners part at equilibrium.
